Results from PMC8228269, “Characterization of Feruloyl Esterase from Bacillus pumilus SK52.001 and Its Application in Ferulic Acid Production from De-Starched Wheat Bran” (Foods, 2021).

Substrate: COC(=O)/C=C/c1ccc(O)c(OC)c1
Experiment: HPLC-UV of released ferulic acid, nonlinear Hill fit
Format: biochemical, Bacillus pumilus
Details: 0.1-8 mmol/L substrate, 50 mmol/L Tris-HCl pH 9.0, 50 °C

B1: BpFAE (Bacillus pumilus) (protein)
chain: MNLQEQIKIAASLRQPAEGSLPSQSELKPVHPPEVNKMEYDIPTSAGETKVWIFKPVNTSKQPLPVFVNLHGGGFILGSAEMDNHWCPVIADRAQCIVVNVEYQLAPEHPFPAALHECYDVLKWLYEHPDELQIDPNRVAIGGHSAGGNLATAACLLNIQKGNPVPIVYQVLDYPPLDLATDPAEKPAFEEAIPVEMARLFNAFYLQGQDPHNPLVSPIFADRSSLAQLPPALVITAERDSLAQEAEQYAEKLKEAGVDVTYRQFKGVPHAFTHAGDLEIAEEAWHLMSDQLKKAFE
notes: C-terminal 6xHis tag (removal not mentioned); expressed in B. subtilis WB800 from pMA5 (NdeI/BamHI); forward primer reads […]; (ATG of the NdeI site followed by a second ATG)
Km: 950 µM
kcat: 514.91 s⁻¹
